Source: IntAct's records for PubMed 29691401

Biological target: lmbl3_human L3MBTL3 (UniProt Q96JM7)
Sequence (Q96JM7 whole entry): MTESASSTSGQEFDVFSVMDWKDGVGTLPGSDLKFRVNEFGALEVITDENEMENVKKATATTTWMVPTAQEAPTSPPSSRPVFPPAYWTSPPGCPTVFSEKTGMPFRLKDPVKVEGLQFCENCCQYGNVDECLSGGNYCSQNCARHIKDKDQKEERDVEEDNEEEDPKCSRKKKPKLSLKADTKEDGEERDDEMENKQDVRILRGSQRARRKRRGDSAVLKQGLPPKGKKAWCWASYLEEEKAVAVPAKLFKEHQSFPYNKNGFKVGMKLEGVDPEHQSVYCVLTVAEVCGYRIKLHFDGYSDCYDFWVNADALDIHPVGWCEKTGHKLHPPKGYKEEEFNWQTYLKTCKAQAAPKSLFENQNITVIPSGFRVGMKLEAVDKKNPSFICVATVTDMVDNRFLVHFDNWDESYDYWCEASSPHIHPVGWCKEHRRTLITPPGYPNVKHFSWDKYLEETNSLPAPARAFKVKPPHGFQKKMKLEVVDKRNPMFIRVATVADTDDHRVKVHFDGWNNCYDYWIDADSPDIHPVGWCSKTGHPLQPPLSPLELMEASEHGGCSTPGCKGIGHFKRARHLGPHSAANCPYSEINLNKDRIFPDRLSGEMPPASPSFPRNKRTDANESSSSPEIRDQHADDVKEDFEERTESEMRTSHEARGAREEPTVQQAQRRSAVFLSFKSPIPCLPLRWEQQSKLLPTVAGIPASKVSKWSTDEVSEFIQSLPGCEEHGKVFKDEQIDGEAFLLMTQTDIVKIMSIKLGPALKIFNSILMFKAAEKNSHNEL

Sequence of Transcription factor E2F1 (Homo sapiens), Q01094 K185R (Q01094 whole entry K185R): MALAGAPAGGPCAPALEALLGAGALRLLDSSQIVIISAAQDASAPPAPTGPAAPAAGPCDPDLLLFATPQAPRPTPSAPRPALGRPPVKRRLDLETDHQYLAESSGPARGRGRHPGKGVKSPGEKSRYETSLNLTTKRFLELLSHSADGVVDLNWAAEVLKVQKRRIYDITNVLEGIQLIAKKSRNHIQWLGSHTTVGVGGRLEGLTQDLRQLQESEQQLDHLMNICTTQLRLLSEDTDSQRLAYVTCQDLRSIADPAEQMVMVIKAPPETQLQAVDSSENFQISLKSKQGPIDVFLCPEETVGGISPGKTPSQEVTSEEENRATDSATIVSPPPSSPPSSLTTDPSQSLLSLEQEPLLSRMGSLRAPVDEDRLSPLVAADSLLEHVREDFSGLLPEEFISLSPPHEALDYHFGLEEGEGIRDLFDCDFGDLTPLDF

## Transcription factor E2F1 (Homo sapiens), Q01094 K185R
  effect of a mutation on the interaction: disrupting interaction strength
